“Also recorded” adds a separate entry of the source.

Test [1] has as its target T1, recombinant mouse epiregulin (rmEreg) (Mus musculus, UniProt Q61521).
T1 sequence (Q61521 56-101 limits assumed): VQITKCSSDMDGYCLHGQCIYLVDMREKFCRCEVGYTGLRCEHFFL
Nature of the test: Inhibition of HFF proliferation induced by mouse epiregulin. It is filed as cell-based. The following applies: rmEreg 100 ng/ml. As for the experimental part: HFF were incubated with recombinant mouse epiregulin (rmEreg) for 3 days (left panel). HFF were incubated in media containing rmEreg 100 ng/ml along with rat anti-human/mouse epiregulin antibody (middle panel) or hEreg NAb1 (right panel), n=4 (middle panel), n=6 (right panel) per antibody concentration. Data points show mean and standard error, which were fit by interpolating from a sigmoidal standard curve.
In order to validate the humanized antibody in mouse models of fibrosis, it was necessary to establish whether it cross-reacted with the mouse epiregulin homologue. To setup the assay, if recombinant mouse epiregulin could induce HFF proliferation was tested first, which it did similar to the human protein (FIG. 7, left panel). […] In contrast, hEreg NAb1 required >100-fold higher concentration to inhibit HFF proliferation by mouse epiregulin protein (FIG. 7, right panel). […] These findings are likely due to raising the humanized antibody in mice, which would negatively select out B cells that produce a self-reactive antibody.

A further test deals with other EGFR ligands. Description: Rescue of HFF growth by other EGFR ligands in presence of hEreg NAb1. The following applies: 5 mg/ml hEreg NAb1; recombinant EGFR ligands 0.1, 1, 10 ng/ml; 3 days. It is filed as cell-based, human. As for the experimental part: HFF were incubated with 5 mg/ml hEreg NAb1 alone and recombinant EGFR ligands at 0.1 ng/ml. 1 ng/ml, and 10 ng/ml for 3 days prior to quantification.
Next it was considered whether hEreg NAb1 could inhibit other EGFR ligands (commercially available from R&D Systems). HFF was incubated with 5 mg/ml of hEreg NAb1 alone, which as discussed above, inhibits epiregulin-driven growth of HFF. Whether addition of the other six EGFR ligands could rescue HFF growth through their activation of EGFR was tested. Compared to the hEreg NAb1 alone control, the lowest concentration tested of each EGFR ligand, 0.1 ng/ml, was sufficient to rescue HFF growth (FIG. 8).

Test [2] concerns skin biopsies from two patients with sGvHD. Description: Sclerotic GvHD patient skin explants, fibrosis protein markers in supernatant by ELISA. It is filed as cell-based, human. The following applies: 2.5 mg/ml, 10 days. The procedure: Paired skin biopsies from right arm and left abdomen of two patients with sGvHD were incubated with 2.5 mg/ml hEreg NAb1 or isotype control IgG1 antibody for 10 days. (FIG. 21A) Photos of patient fibrotic skin. (FIGS. 21B-21C) Media was changed every 48 hours and the level of fibrosis protein markers in the supernatant was quantified by ELISA (Abcam kits ab213831, ab210966, ab219046, ab187394, ab179886).
It was then investigated whether hEreg NAb1 could reduce fibrosis similar to the epiregulin neutralizing rat antibody. To investigate whether hEreg NAb1 reduces fibrosis protein markers, hEreg NAb1 was tested on skin biopsies from two patients with the fibrotic form of graft-vs-host disease (sGvHD). Patient I was a person 3 years post stem cell transplant from matched unrelated donor for treatment of myelodysplastic syndrome not on any immunosuppressive therapies. Patient 2 was a person 3 years post stem cell transplant from matched unrelated donor for treatment of acute myelogenous leukemia not on any immunosuppressive therapies. Paired 4 mm skin biopsies from the most affected skin of the right arm of patient 1 and left abdomen of patient 2 were obtained (FIG. 21A). Skin explants were incubated with 2.5 mg/ml hEreg NAb1 or isotype control IgG1 antibody for 10 days.

Test [3] addresses T2, full-length epiregulin protein (Homo sapiens, UniProt O14944).
T2 construct: Cultured HFF expressed endogenous full-length epiregulin; endogenous in cells; host or cells: human foreskin fibroblasts (HFF, ATCC #SCRC-1041)
T2 sequence (O14944 63-169): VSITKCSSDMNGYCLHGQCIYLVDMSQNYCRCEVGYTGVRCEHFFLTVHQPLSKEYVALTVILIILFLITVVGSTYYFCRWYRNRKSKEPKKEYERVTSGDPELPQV
Description: HFF growth with increasing antibody in the absence of exogenous EGFR ligands. It is filed as cell-based. The following applies: increasing antibody concentrations, no exogenous EGFR ligands. The procedure:
HFF were incubated with increasing concentrations of hEreg NAb1 in the absence of exogenous epidermal growth factor receptor (EGFR) ligands.
To gauge their ability to inhibit epiregulin, whether the two unique antibodies produced by the hybridoma clones could inhibit recombinant epiregulin protein in vitro was tested. Characteristic of other EGFR ligands, recombinant human epiregulin (same as used for Alloy mouse immunization) induced proliferation of cultured human foreskin fibroblasts (HFF, ATCC #SCRC-1041) (FIG. 5, left panel). Maximal proliferation occurred at 100 ng/ml, so this concentration was used in subsequent inhibition experiments. The ability of hEreg NAb1 and a commercially available rat anti-human/mouse neutralizing epiregulin antibody (R&D Systems MAB1068) to inhibit epiregulin-induced HFF proliferation was then compared. […] Cultured HFF expressed endogenous full-length epiregulin, but little to no other EGFR ligands. If HFF depend on the expression of epiregulin for growth and survival, inhibition of the endogenously produced protein should reduce their growth. […] Thus, hEreg NAb1 inhibits both the recombinant and full-length human epiregulin proteins.

In test [4] the target is T3, recombinant human epiregulin (rhEreg) (Homo sapiens, UniProt O14944).
T3 construct: recombinant human epiregulin containing the epidermal growth factor (EGF) domain; purchased R&D Biosciences 1195-EP
T3 sequence (O14944 63-108 limits assumed): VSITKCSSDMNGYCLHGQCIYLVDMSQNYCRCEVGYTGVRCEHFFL
Description: Inhibition of epiregulin-induced proliferation of human foreskin fibroblasts (CyQUANT). Format: cell-based. Particulars: rhEreg 100 ng/ml. The procedure: Human foreskin fibroblasts (HFFs) were incubated with recombinant human epiregulin (rhEreg) in Dulbecco's Modified Eagle Medium (DMEM) containing 1% fetal bovine serum (FBS), n=3 per rhEreg concentration (left panel). HFF were incubated in media containing rhEreg 100 ng/ml along with commercially available rat anti-human/mouse epiregulin antibody (middle panel) or hEreg NAb1 (right panel), n=4 (middle panel), n=6 (right panel) per antibody concentration. Data points show mean and standard error, which were fit by interpolating from a sigmoidal standard curve. Proliferation was measured by green fluorescence protein (GFP) fluorescence at day 3 using CyQUANT Direct Cell Proliferation Assay (Invitrogen) on Synergy HTX plate reader (Biotek).
To gauge their ability to inhibit epiregulin, whether the two unique antibodies produced by the hybridoma clones could inhibit recombinant epiregulin protein in vitro was tested. Characteristic of other EGFR ligands, recombinant human epiregulin (same as used for Alloy mouse immunization) induced proliferation of cultured human foreskin fibroblasts (HFF, ATCC #SCRC-1041) (FIG. 5, left panel). Maximal proliferation occurred at 100 ng/ml, so this concentration was used in subsequent inhibition experiments. […]

[5] abbreviates: skin explants from either patient.

B1: hEreg NAb1: humanized epiregulin neutralizing antibody from hybridoma wells M3-5; VH SEQ ID NO: 1, VL SEQ ID NO: 6 (antibody, V domains shown)
VH: HLQLQESGPGLVKSSETLSLTCSVSGGSISSSGYYWGWIRQPPGKGLEWIGSFYYSGNTYYNPSLKSRVTISADTSKSQYSLKLSSVTAADTAVYYCARHPFNWNDHYHYMDVWGNGTTVTVSS
VL: DIQMTQSPSSLSASVGDSVTITCRASQSISNYLNWYQKKPGKAPKVLIYAASSLQSGVPSRFSGSGSGTDFTLTISSLQPEDFATYYCQQSYITSITFGQGTRLEIK
In the case of B1, in test [1] (HFF proliferation), the “cross-reactivity for mouse epiregulin protein” value is “little cross-reactivity; also recorded: low cross-reactivity”. Also, in test [1] (HFF), the “fold higher concentration required to inhibit HFF proliferation by mouse epiregulin protein” value is on record as over 100 fold. For the same molecule, the “cross-reactivity with / neutralization of other EGFR ligands” value in the test with other EGFR ligands is “does not cross-react; also recorded: does not neutralize”. Further, the “fibrosis markers in sclerotic GvHD skin explants” value in test [2] (vs isotype control IgG1) is listed as “reduces fibrosis markers”. In test [2] (patient 1, right arm), the “MCP-1 in supernatant vs IgG1 isotype control” value is “significantly reduced expression”, the “TIMP1 in supernatant vs IgG1 isotype control” value is on record as “significantly reduced expression” and the “TNC in supernatant vs IgG1 isotype control” value is reported as “significantly reduced expression”. Also, the “TNC in supernatant vs IgG1 isotype control” value in test [2] (patient 2, left abdomen) is recorded as “significant reduction”. For the same molecule, in test [2] (setting [5]), the “fibronectin (FN) expression” value is given as “did not reduce expression” and the “pro-collagen I alpha 1/pro-collagen I N-terminal propeptide (PINP) expression” value is reported as “did not reduce expression”. Also, the “HFF growth / inhibition of endogenous full-length epiregulin” value in test [3] was “decreased growth was observed; also recorded: inhibits full-length epiregulin protein”. Further, the “inhibition of human epiregulin-induced HFF proliferation” value in test [4] (3 days) was “inhibited HFF proliferation in a concentration-dependent manner; also recorded: inhibits”. For the same molecule, the “IC50, inhibition of epiregulin-induced HFF proliferation” value in test [4] (day 3) lay within 0.1 to 0.3 µg/mL.

For the origin of these results see patent US20250154238A1, “METHODS AND COMPOSITIONS FOR TREATING AND PREVENTING FIBROSIS” (YALE UNIVERSITY, priority 2022, published 2025).
